This note sets out measurements from PMC7587441, “Plasmodium falciparum Apicomplexan-Specific Glucosamine-6-Phosphate N-Acetyltransferase Is Key for Amino Sugar Metabolism and Asexual Blood Stage Development” (mBio, 2020).

Substrate in the data set: CC(=O)SCCNC(=O)CCNC(=O)[C@H](O)C(C)(C)COP(=O)(O)OP(=O)(O)OC[C@H]1O[C@@H](n2cnc3c(N)ncnc32)[C@H](O)[C@@H]1OP(=O)(O)O
Briefly: DTNB colorimetric assay of CoA release. The settings on record: 2000 μM GlcN6P fixed, 25 mM Tris-HCl, 150 mM NaCl, pH 7.2, room temperature. In kind it is biochemical, Cryptosporidium parvum. The text has this: DTNB colorimetric assay of CoA release on CpGNA1

As usually defined, the Km is the substrate concentration at which the rate is half of its maximum.

B1: CpGNA1 (Cryptosporidium parvum Iowa II) (protein)
chain: MISSFEVRKATIDDYFELRNLICDVTRCTETLSREQAEERFRYNTYHPYCLVDTENGRIVGYAGFYIIPHLGRKNDSRIEHVIISKEYRNRGLGRLLCKQIIEDAKNKFNCGRIDLTVESHIAKKLYSSLEFEKVNTEVMRNSFLDLTPKSD
notes: N-terminal GST tag kept (not cleaved), pGEX-6P-1, codon-optimized
Regarding B1, the Km came out at 531 ± 80.33 µM.
